The supplement of paper PMC9732359
± gives the uncertainty stated by the source.

Assay: protein stability index of a GFP-peptide fusion (yeast GPS) (PSI 1-4); higher = more stable; sorted into four equal gates, so the index is relative within each strain
Settings: ubr1∆
Outline: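 The protein stability index combines read frequencies across sorting gates, each weighted by its gate number and then summed. To obtain those frequencies, a pooled yeast library of GFP fusions to tiled 17-residue yeast protein peptides, on a plasmid also expressing Cherry, was grown to mid-log phase in leucine-free medium. The cells were sorted into four equal gates by GFP/Cherry ratio before plasmid amplification by PCR and Illumina sequencing.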

| Sequence | protein stability index |
| --- | --- |
| GLESQIQEIKESVELPL [RPT2] | 2.83 ± 0.072 |
| GLLDESPNRLRVRTDDS [YML031W/NDC1] | 1.64 ± 0.051 |
| GMKVKADRDESSPYAAM [RPS14B] | 1.2 ± 0.089 |
| GMMSTTGTARLNSMPNN [YJL039C/NUP192] | 3.22 ± 0.11 |
| GMPHKFYQGKTGVVYNV [RPL21A] | 2.61 ± 0.067 |
| GNASLKYIALQVIVDIF [YCG1] | 1.54 ± 0.15 |
| GNDNNSDSNANAAVAGV [SWI3] | 3.18 ± 0.058 |
| GNGNVSESDIINNLPPE [YCG1] | 2.78 ± 0.15 |
| GNIQISEYNFLEGSVSL [DIS3] | 2.89 ± 0.072 |
| GNKKYRALRIETGNFSW [RPS8A] | 2.85 ± 0.03 |
| GNMGITTEMLDKLMVTS [MED6] | 3.07 ± 0.11 |
| GNPLSIGTLEEIIDDDH [RPT2] | 3.24 ± 0.17 |
| GNVFSPIDNNIIFASTK [SNU114] | 2.95 ± 0.046 |
| GNVLLNATVVDSFKYEP [YLR335W/NUP2] | 2.62 ± 0.17 |
| GNVTELYGTAIGARSQG [PRE5] | 1.31 ± 0.044 |
| GPGGQAALRALARSGLR [RPS14B] | 2.48 ± 0.085 |
| GPKKNVFYAPNVKNYST [RPC34] | 2.49 ± 0.044 |
| GPRNTEEKGWVPVTKLG [RPS2] | 3.67 ± 0.082 |
| GPVAAQFTKVIDEPIKS [FAS1] | 2 ± 0.052 |
| GPVVAGINSKSGKPFIA [PUP3] | 3.05 ± 0.11 |
| GQCRTELEGSFNKSAEL [YCS4] | 2.9 ± 0.081 |
| GQLLSVKFLVYQGVYSM [YML031W/NDC1] | 1.98 ± 0.11 |
| GQNCLDIDGIMDNPRKL [SNU114] | 3.81 ± 0.27 |
| GQRDLDRIAAQTLEEDE [RPS19A] | 3.23 ± 0.097 |
| GQSEASLLNLLNISPFT [RPP0] | 2.66 ± 0.058 |

| Sequence | protein stability index |
| --- | --- |
| GRLLRAMFEICLKRGWG [BRR2] | 1.81 ± 0.077 |
| GRLNTLVISLAATNETF [IRR1] | 1.17 ± 0.06 |
| GRLSLRSLTAYAPNLML [QCR10] | 1.42 ± 0.06 |
| GRRLNIRQYALATAHIY [SSN8] | 1.09 ± 0.067 |
| GRSDSNTEEKAELQSNL [YGL100W/SEH1] | 1.52 ± 0.039 |
| GRVKYTKRQKHFAWLPT [POP1] | 2.55 ± 0.039 |
| GRYAGKKVVIVKPHDEG [RPL27A] | 2.29 ± 0.26 |
| GSEILGDLKLQVLLDEE [RPO21] | 3.28 ± 0.1 |
| GSFKVVKGTNISEKDLV [RPO31] | 3.5 ± 0.089 |
| GSIPSLTTQFVTDKYTA [YDL088C/ASM4] | 2.58 ± 0.079 |
| GSKENYQELGSLQSSSQ [MED2] | 3.12 ± 0.093 |
| GSKIRVMWGKVTRTHGN [RPL33A] | 2.78 ± 0.054 |
| GSNNAQTSRGLFGNNNT [YGL172W/NUP49] | 3.16 ± 0.1 |
| GSQKTFEIDDEHRIRVF [RPS6A] | 2.5 ± 0.21 |
| GSTFKVNQEFIFEAISL [YJL039C/NUP192] | 1.49 ± 0.079 |
| GTANNNSNTTNQNSSTG [YJL041W/NSP1] | 3.09 ± 0.061 |
| GTCNGDITTSIMDNFLE [RPN1] | 2.82 ± 0.068 |
| GTFTADYSKPNLPPHYA [SSN2] | 2.15 ± 0.039 |
| GTGLFGQQTAQPQQSTI [YGR119C/NUP57] | 3.19 ± 0.058 |
| GTLDKNSQTVSGTPITQ [SNF2] | 2.65 ± 0.044 |
| GTLWAHVLKTVDYGGAE [SNU114] | 1.36 ± 0.057 |
| GTQQSNMYTSTQKTELE [SIR4] | 3 ± 0.053 |
| GTYIQERNPSQRPQRRY [RPS10B] | 3.23 ± 0.036 |
| GVANTDTAGEESQQQDE [SWI3] | 3.43 ± 0.086 |
| GVDDQILATNSLRILAK [YJL039C/NUP192] | 3.24 ± 0.076 |

| Sequence | protein stability index |
| --- | --- |
| GVKNNLLTPKSGEPIIA [RPO31] | 2.62 ± 0.22 |
| GWSLVGRILQNLLHSYM [YML103C/NUP188] | 1.05 ± 0.03 |
| GYDRHITIFSPEGRLYQ [SCL1] | 3.06 ± 0.077 |
| GYFIINGSEKVLIAQER [RPB2] | 2.15 ± 0.26 |
| GYIKNNKKIYQWNKLTS [POP6] | 3.06 ± 0.081 |
| GYRSRTRYMFQRDFRKH [RPL21A] | 3.3 ± 0.049 |
| GYVSSLVEPSKVGQFDQ [FAS1] | 1.91 ± 0.078 |
| HAKFSPVSTASYRLLPQ [RPC40] | 2.23 ± 0.077 |
| HANAAAVYFADTSGLKI [SIN4] | 2.49 ± 0.053 |
| HARTAAVTHNLYYDEDI [PUP2] | 2.63 ± 0.1 |
| HASKAIGLPRHSLAYLL [RRP6] | 1.72 ± 0.037 |
| HAYRDVLAQYHEAKERI [SNF6] | 3.31 ± 0.051 |
| HCITSITLALADAGIEL [MTR3] | 1.55 ± 0.097 |
| HDADLEVSMNSIFAMGL [RPN1] | 2.4 ± 0.034 |
| HDEKSDSLNEWIKFDQE [RPN7] | 3.21 ± 0.072 |
| HEAKERIRQKEVTAGEA [SNF6] | 2.6 ± 0.074 |
| HEDLVNSIESKNLSLQT [COR1] | 2.97 ± 0.073 |
| HESTSRTDQYTIDNIDS [YMR129W/POM152] | 2.86 ± 0.045 |
| HFENAKVIDLDTKLKAH [YIL149C/MLP2] | 2.48 ± 0.073 |
| HFFSKSCSFFAKLSDTL [NUT1] | 1.95 ± 0.035 |
| HFQDQKNKKIEVYTKTI [POP7] | 2.7 ± 0.086 |
| HFVRDLGTIESAQAETE [DIS3] | 2.49 ± 0.095 |
| HGDAAVLLVEKYGAEYD [NAS6] | 3.04 ± 0.19 |
| HGGKMKPEIDENGTLLV [RPR2] | 2.97 ± 0.047 |
| HGTSTSAEDEENIIQRL [CDC53] | 3.06 ± 0.057 |

| Sequence | protein stability index |
| --- | --- |
| HHDYRSYYGIVCLMQIS [RRP6] | 1.68 ± 0.076 |
| HIEKLENEFVVLLDARD [CDC53] | 3.27 ± 0.091 |
| HILPEVPPVENFPVRQW [TAF14] | 3.05 ± 0.055 |
| HKCDELITLFNKGELET [RPO31] | 2.92 ± 0.1 |
| HKHNIMKNENANPKKLA [CDC53] | 2.35 ± 0.057 |
| HKLRESLPLIVFLRNRL [RPS4A] | 1.43 ± 0.043 |
| HKSIELISNLLFSKNRN [YCS4] | 2.41 ± 0.05 |
| HKTMSIVGVLQDDADPM [RPT2] | 1.85 ± 0.13 |
| HKVQTKLTRELEKKFPD [RPS7B] | 3.07 ± 0.055 |
| HLKHENANDETTAVEDE [RPB4] | 3.17 ± 0.14 |
| HNQSPRNTYQSAMGKQA [RPB2] | 2.25 ± 0.039 |
| HPKLIKNKSGKIFVETK [FAS1] | 2.67 ± 0.1 |
| HQNVIIGSNGSGKSNFF [SMC3] | 2.85 ± 0.057 |
| HSLREYINGKATALANL [RPO31] | 2.99 ± 0.068 |
| HTLCNRCGRRSFHVQKK [RPL37A] | 2.85 ± 0.029 |
| HTQANEPNSAKKIRFLQ [RGR1] | 3.33 ± 0.18 |
| HVFQYANRPRLVGRKPA [RPC37] | 2.69 ± 0.082 |
| HYDNTTRNSLGNVIQFI [RPO21] | 2.86 ± 0.03 |
| IAASAFLSLLNLATKGM [REC8] | 1.62 ± 0.046 |
| IAKSQDKKSCSVDDVLS [DPB4] | 3.16 ± 0.039 |
| IATDGGRICRPLIIVSD [RET1] | 2.14 ± 0.038 |
| ICERIFEQGQALKEDER [RRI2] | 3.21 ± 0.19 |
| ICKNCSAILLSETDKRQ [RPO31] | 2.96 ± 0.041 |
| ICNTLNIAKDLKWKKGI [SMC1] | 2.69 ± 0.24 |
| IDEDIGNNVQENELVIT [RMP1] | 3.39 ± 0.16 |
